Measurements from patent US20220362357A1, “Synergistic Combinations of Amino Acid Depletion Agent Sensitizers (AADAS) and Amino Acid Depletion Agents (AADA), and Therapeutic Methods of Use Thereof” (STICHTING RADBOUD UNIVERSITAIR MEDISCH CENTRUM, priority 2018, published 2022).

B1: PEG-Asparaginase: E. coli-derived peg-conjugated ASNase, used in the in vivo studies (protein, UniProt P00805 23-348, looked up)
L-asparaginase 2: LPNITILATGGTIAGGGDSATKSNYTVGKVGVENLVNAVPQLKDIANVKGEQVVNIGSQDMNDNVWLTLAKKINTDCDKTDGFVITHGTDTMEETAYFLDLTVKCDKPVVMVGAMRPSTSMSADGPFNLYNAVVTAADKASANRGVLVVMNDTVLDGRDVTKTNTTDVATFKSVNYGPLGYIHNGKIDYQRTPARKHTSDTPFDVSKLNELPKVGIVYNYANASDLPAKALVDAGYDGIVSAGVGNGNLYKSVFDTLATAAKTGTAVVRSSRVPTGATTQDAEVDDAKYGFVASGTLNPQKARVLLQLALTQTKDPQQIQQIFNQY
modifications: PEG conjugate (pegaspargase)
B2: …®: recombinantly produced E. coli ASNase, NCBI Ref Seq WP_000394140.1, ATC Code L01XX02 (protein, UniProt P00805 23-348, looked up)
L-asparaginase 2: B1 L-asparaginase 2

Assays:
[1] = tested on: Human Acute Lymphoblastic Leukemia blasts in NSG mice; conditions: for bodyweight: NSG mice, ibrutinib 25 mg/kg oral daily 9 days, ONCASPAR 300 IU/kg IV days 1, 4, 7
Method: Procedure. The experimental design is schematized in FIG. 7A. Briefly, thirty-two (32) NOD.Cg-Prkdcscid I2rgtm1Wjl/SzJ (“NSG”) mice were injected intrafemorally with 500,000 leukemic blasts (2 injections/mouse) (Human Acute Lymphoblastic Leukemia). […] During and after treatment, mice were weighed weekly, and their welfare was evaluated daily. Blood samples were taken weekly for assessment of the leukemia burden. Termination was predefined with a leukemia burden reaching 50% leukemic blasts in peripheral blood as measured by flow cytometry or euthanasia because of overt signs of discomfort due to disease.
The primary outcome of this experiment was event-free survival, where event was defined as […]. Differences in event-free survival were analyzed using a Kaplan-Meier plot and significance was tested using the log-rank test.

LOUCY cells = assay: T-ALL cell line viability and cell death by amine exposure; type: cell-based, human; conditions: 3 or 7 days
HBP-ALL cells = assay: as above; type: cell-based, human; conditions: 3 or 7 days
[2] = tested on: 30 cell lines covering a variety of cancer cell types; assay: ApoTox-Glo Triplex Assay (viability, cytotoxicity, apoptosis), 3-4 days, panel; type: cell-based; conditions: in still other cases
Method: Two incubation times were tested. […] Ibrutinib was the AADAS as detailed above.
Cell culture conditions. Adherent tumor cells were grown as monolayer at 37° C. in a humidified atmosphere (5% CO2, 95% air). […] The cells were counted and their viability assessed by 0.25% trypan blue exclusion assay.
Cell plating for 3 to 4 day incubation.
Each compound was tested alone at 6 doses.
Experiments were performed in duplicate.
Two protocols of incubation were performed: overnight and over 3/4 days as indicated.
The assay was performed as recommended by the manufacturer. […] The assay was performed as recommended by the manufacturer. […] Apoptosis was measured in luminescence.

| Molecule | bodyweight [1] | mice that reached the termination point (>50% leukemic blasts) after 10 weeks ([1]; weeks after transplantation) | leukemia development ([1]; human leukemic blasts in blood by flow cytometry) | sensitivity, cell death by amine exposure (LOUCY cells) | sensitivity, cell death by amine exposure (HBP-ALL cells) | resistance of the cells [2] |
| --- | --- | --- | --- | --- | --- | --- |
| C=CC(=O)N1CCC[C@@H](n2nc(-c3ccc(Oc4ccccc4)cc3)c3c(N)ncnc32)C1 [ibrutinib, reference compound] | mild and transient drop in bodyweight | 4/7 |  |  |  |  |
| B1 | strong but transient weight loss |  | stronger delay in leukemia development |  |  |  |
| B2 |  |  |  | extremely sensitive | extremely sensitive | somewhat resistant |
